The labels stand for the following.
B1: DVD3904 (PR-1565031) (bispecific antibody, human IgG1, kappa, L234A L235A)
heavy: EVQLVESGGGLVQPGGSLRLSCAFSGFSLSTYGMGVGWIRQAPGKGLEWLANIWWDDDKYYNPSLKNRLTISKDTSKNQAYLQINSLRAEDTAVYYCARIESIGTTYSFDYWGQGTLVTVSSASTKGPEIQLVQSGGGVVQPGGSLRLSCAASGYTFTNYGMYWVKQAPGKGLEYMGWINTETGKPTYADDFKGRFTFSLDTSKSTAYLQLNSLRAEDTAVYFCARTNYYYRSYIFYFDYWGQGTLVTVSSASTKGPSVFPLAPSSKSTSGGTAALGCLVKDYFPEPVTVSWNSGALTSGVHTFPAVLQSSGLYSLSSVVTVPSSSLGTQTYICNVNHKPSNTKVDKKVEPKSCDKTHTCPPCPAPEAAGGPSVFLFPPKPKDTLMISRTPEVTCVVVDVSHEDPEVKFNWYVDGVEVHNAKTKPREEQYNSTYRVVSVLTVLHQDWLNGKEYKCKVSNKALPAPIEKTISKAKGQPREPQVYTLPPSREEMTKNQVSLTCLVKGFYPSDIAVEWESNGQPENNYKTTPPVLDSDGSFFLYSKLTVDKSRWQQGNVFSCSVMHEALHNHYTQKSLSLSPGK
light: DFQLTQSPSSLSASVGDRVTITCERSSGDIGDSYVSWYQQKPGKAPKNVIYADDQRPSGVPSRFSGSGSGNSASLTISSLQPEDFATYFCQSYDINIDIVFGQGTKVEIKGTVAAPSVFIFPPDTVLTQSPSTLSASPGERATISCRASESVSTHMHWYQQKPGQAPKLLIYGASNLESGVPSRFSGSRSGTDFTLTISSLQPEDFAVYFCQQSWNDPFTFGQGTKVEIKRTVAAPSVFIFPPSDEQLKSGTASVVCLLNNFYPREAKVQWKVDNALQSGNSQESVTEQDSKDSTYSLSSTLTLSKADYEKHKVYACEVTHQGLSSPVTKSFNRGEC
notes: DVD-Ig; linkers HG-short/LK-long, inner hBDB-4G8.14 (VEGF); human IgG1 L234A, L235A / kappa
B2: DVD3905 (PR-1565032) (bispecific antibody, human IgG1, kappa, L234A L235A)
heavy: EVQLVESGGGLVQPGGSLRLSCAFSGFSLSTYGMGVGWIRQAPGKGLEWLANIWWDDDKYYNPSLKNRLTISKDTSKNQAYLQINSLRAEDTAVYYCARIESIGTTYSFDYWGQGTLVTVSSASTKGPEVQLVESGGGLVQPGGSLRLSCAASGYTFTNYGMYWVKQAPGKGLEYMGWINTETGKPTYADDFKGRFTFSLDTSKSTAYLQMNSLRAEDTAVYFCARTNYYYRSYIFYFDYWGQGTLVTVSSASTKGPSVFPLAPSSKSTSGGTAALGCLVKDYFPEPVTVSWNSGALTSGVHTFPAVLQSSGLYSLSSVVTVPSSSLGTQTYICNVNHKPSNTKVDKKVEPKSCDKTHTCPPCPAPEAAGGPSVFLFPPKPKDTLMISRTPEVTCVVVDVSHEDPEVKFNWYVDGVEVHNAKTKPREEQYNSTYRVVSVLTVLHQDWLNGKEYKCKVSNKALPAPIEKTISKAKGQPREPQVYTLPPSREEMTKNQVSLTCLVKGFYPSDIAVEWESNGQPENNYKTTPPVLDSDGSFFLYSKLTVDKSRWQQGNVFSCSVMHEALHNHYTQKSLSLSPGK
light: B1 light with V126Q, T133S, P138V, E140D, A142V, Q165K, R189G, V208T
notes: DVD-Ig; outer hBDI-9E8.12 (PDGF), linkers HG-short/LK-long, inner hBDB-4G8.15 (VEGF); human IgG1 L234A, L235A / kappa
B3: 9E8.4-LS-4G8.3 (PR-1564009) (bispecific antibody, human IgG1, kappa, L234A L235A)
heavy: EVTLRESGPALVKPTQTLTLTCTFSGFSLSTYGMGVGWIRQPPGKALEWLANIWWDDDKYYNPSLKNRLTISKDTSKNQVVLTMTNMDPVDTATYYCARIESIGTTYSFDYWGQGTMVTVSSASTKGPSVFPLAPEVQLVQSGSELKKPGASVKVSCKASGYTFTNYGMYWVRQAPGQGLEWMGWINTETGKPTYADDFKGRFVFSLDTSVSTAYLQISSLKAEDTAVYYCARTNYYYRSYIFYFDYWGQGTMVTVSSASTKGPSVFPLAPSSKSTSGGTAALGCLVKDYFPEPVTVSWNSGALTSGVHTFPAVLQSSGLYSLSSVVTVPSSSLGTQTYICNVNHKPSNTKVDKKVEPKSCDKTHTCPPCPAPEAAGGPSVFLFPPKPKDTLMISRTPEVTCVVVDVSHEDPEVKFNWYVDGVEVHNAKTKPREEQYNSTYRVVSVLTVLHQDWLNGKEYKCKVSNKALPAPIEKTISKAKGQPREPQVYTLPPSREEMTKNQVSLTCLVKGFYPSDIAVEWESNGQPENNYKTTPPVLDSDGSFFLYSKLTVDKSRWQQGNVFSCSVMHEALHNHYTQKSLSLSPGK
light: EFVLTQSPGTLSLSPGERATLSCERSSGDIGDSYVSWYQQKPGQAPRLVIYADDQRPSGIPDRFSGSGSGTDFTLTISRLEPEDFAVYYCQSYDINIDIVFGGGTKVEIKGTVAAPDTVLTQSPATLSLSPGERATLSCRASESVSTHMHWYQQKPGQAPRLLIYGASNLESGVPARFSGSGSGTDFTLTISSLEPEDFAVYFCQQSWNDPFTFGQGTKLEIKRTVAAPSVFIFPPSDEQLKSGTASVVCLLNNFYPREAKVQWKVDNALQSGNSQESVTEQDSKDSTYSLSSTLTLSKADYEKHKVYACEVTHQGLSSPVTKSFNRGEC
notes: DVD-Ig; outer hBDI-9E8.4 (PDGF), linkers HG-long/LK-short, inner hBDB-4G8.3 (VEGF); human IgG1 L234A, L235A / kappa
B4: 4G8.3-GS(9)-9E8.4 (g) (PR-1572102) (bispecific antibody, human IgG1, kappa, L234A L235A)
heavy: EVQLVQSGSELKKPGASVKVSCKASGYTFTNYGMYWVRQAPGQGLEWMGWINTETGKPTYADDFKGRFVFSLDTSVSTAYLQISSLKAEDTAVYYCARTNYYYRSYIFYFDYWGQGTMVTVSSGGGGSGGGGSEVTLRESGPALVKPTQTLTLTCTFSGFSLSTYGMGVGWIRQPPGKALEWLANIWWDDDKYYNPSLKNRLTISKDTSKNQVVLTMTNMDPVDTATYYCARIESIGTTYSFDYWGQGTMVTVSSASTKGPSVFPLAPSSKSTSGGTAALGCLVKDYFPEPVTVSWNSGALTSGVHTFPAVLQSSGLYSLSSVVTVPSSSLGTQTYICNVNHKPSNTKVDKKVEPKSCDKTHTCPPCPAPEAAGGPSVFLFPPKPKDTLMISRTPEVTCVVVDVSHEDPEVKFNWYVDGVEVHNAKTKPREEQYNSTYRVVSVLTVLHQDWLNGKEYKCKVSNKALPAPIEKTISKAKGQPREPQVYTLPPSREEMTKNQVSLTCLVKGFYPSDIAVEWESNGQPENNYKTTPPVLDSDGSFFLYSKLTVDKSRWQQGNVFSCSVMHEALHNAYTQKSLSLSPGK
light: DTVLTQSPATLSLSPGERATLSCRASESVSTHMHWYQQKPGQAPRLLIYGASNLESGVPARFSGSGSGTDFTLTISSLEPEDFAVYFCQQSWNDPFTFGQGTKLEIKRGGSGGGGSGEFVLTQSPGTLSLSPGERATLSCERSSGDIGDSYVSWYQQKPGQAPRLVIYADDQRPSGIPDRFSGSGSGTDFTLTISRLEPEDFAVYYCQSYDINIDIVFGGGTKVEIKRTVAAPSVFIFPPSDEQLKSGTASVVCLLNNFYPREAKVQWKVDNALQSGNSQESVTEQDSKDSTYSLSSTLTLSKADYEKHKVYACEVTHQGLSSPVTKSFNRGEC
notes: DVD-Ig; outer hBDB-4G8.3 (VEGF), linkers GS-H10/GS-L10, inner hBDI-9E8.4 (PDGF); human IgG1 L234A, L235A, H435A / kappa; also called 4G8.3-GS-9E8.4 (g); hu VEGF 4G8.3-GS-hu PDGF 9E8.4 (germline) [hu IgG1/k]; LALA H435A
B5: 4G8.3-GS(noR)-9E8.4 (g) (PR-1572104) (bispecific antibody, human IgG1, kappa, L234A L235A)
heavy: B4 heavy
light: B4 light with R108G, G110S, S111G, G115S, S116G
notes: DVD-Ig; outer hBDB-4G8.3 (VEGF), linkers GS-H10/GS-L10(dR), inner hBDI-9E8.4 (PDGF); human IgG1 L234A, L235A, H435A / kappa
B6: 4G8.3-GS-9E8.4 (PR-1564010) (bispecific antibody, human IgG1, kappa, L234A L235A)
heavy: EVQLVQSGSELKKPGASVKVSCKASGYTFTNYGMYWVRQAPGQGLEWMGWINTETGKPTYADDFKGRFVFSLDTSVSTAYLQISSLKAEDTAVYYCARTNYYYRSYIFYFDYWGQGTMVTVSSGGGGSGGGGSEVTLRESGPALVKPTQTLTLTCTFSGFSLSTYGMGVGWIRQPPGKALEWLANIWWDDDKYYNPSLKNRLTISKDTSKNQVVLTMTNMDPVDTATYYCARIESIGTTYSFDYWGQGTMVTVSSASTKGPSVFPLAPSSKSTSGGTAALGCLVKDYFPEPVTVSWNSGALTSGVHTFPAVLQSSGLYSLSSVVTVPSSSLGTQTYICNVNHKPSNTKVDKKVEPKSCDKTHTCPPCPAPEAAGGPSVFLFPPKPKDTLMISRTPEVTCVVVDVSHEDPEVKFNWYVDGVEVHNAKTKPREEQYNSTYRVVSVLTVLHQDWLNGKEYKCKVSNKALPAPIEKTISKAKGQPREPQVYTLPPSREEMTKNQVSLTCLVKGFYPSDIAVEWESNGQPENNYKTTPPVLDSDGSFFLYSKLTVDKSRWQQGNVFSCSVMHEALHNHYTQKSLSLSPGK
light: B4 light with R228G
notes: DVD-Ig; outer hBDB-4G8.3 (VEGF), linkers GS-H10/GS-L10, inner hBDI-9E8.4 (PDGF); human IgG1 L234A, L235A / kappa
B7: 4G8.3-SL-9E8.4 (PR-1564012) (bispecific antibody, human IgG1, kappa, L234A L235A)
heavy: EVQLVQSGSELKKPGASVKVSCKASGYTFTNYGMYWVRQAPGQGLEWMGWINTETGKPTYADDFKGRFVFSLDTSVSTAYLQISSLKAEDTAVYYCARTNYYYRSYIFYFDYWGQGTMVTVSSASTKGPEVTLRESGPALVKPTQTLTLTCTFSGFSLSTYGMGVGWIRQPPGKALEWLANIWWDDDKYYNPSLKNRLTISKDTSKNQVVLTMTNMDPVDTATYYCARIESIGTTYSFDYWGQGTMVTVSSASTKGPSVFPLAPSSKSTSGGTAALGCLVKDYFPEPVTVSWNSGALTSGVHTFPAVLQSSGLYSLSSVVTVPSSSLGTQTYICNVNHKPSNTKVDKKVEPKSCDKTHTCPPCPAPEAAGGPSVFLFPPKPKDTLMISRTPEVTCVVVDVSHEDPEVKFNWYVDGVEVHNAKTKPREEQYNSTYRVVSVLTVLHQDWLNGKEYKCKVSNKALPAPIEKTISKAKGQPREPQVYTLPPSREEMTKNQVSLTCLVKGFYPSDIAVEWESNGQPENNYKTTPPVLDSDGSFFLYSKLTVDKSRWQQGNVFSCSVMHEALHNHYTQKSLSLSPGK
light: DTVLTQSPATLSLSPGERATLSCRASESVSTHMHWYQQKPGQAPRLLIYGASNLESGVPARFSGSGSGTDFTLTISSLEPEDFAVYFCQQSWNDPFTFGQGTKLEIKRTVAAPSVFIFPPEFVLTQSPGTLSLSPGERATLSCERSSGDIGDSYVSWYQQKPGQAPRLVIYADDQRPSGIPDRFSGSGSGTDFTLTISRLEPEDFAVYYCQSYDINIDIVFGGGTKVEIKGTVAAPSVFIFPPSDEQLKSGTASVVCLLNNFYPREAKVQWKVDNALQSGNSQESVTEQDSKDSTYSLSSTLTLSKADYEKHKVYACEVTHQGLSSPVTKSFNRGEC
notes: DVD-Ig; outer hBDB-4G8.3 (VEGF), linkers HG-short/LK-long, inner hBDI-9E8.4 (PDGF); human IgG1 L234A, L235A / kappa
B8: 4G8.3-SL-9E8.4 (g) (PR-1572105) (bispecific antibody, human IgG1, kappa, L234A L235A)
heavy: EVQLVQSGSELKKPGASVKVSCKASGYTFTNYGMYWVRQAPGQGLEWMGWINTETGKPTYADDFKGRFVFSLDTSVSTAYLQISSLKAEDTAVYYCARTNYYYRSYIFYFDYWGQGTMVTVSSASTKGPEVTLRESGPALVKPTQTLTLTCTFSGFSLSTYGMGVGWIRQPPGKALEWLANIWWDDDKYYNPSLKNRLTISKDTSKNQVVLTMTNMDPVDTATYYCARIESIGTTYSFDYWGQGTMVTVSSASTKGPSVFPLAPSSKSTSGGTAALGCLVKDYFPEPVTVSWNSGALTSGVHTFPAVLQSSGLYSLSSVVTVPSSSLGTQTYICNVNHKPSNTKVDKKVEPKSCDKTHTCPPCPAPEAAGGPSVFLFPPKPKDTLMISRTPEVTCVVVDVSHEDPEVKFNWYVDGVEVHNAKTKPREEQYNSTYRVVSVLTVLHQDWLNGKEYKCKVSNKALPAPIEKTISKAKGQPREPQVYTLPPSREEMTKNQVSLTCLVKGFYPSDIAVEWESNGQPENNYKTTPPVLDSDGSFFLYSKLTVDKSRWQQGNVFSCSVMHEALHNAYTQKSLSLSPGK
light: B7 light with G231R
notes: DVD-Ig; outer hBDB-4G8.3 (VEGF), linkers HG-short/LK-long, inner hBDI-9E8.4 (PDGF); human IgG1 L234A, L235A, H435A / kappa; also called hu VEGF 4G8.3-SL-hu PDGF 9E8.4 (germline) [hu IgG1/k]; LALA H435A; DVD-Ig-3
B9: 4G8.3-SS-9E8.4 (PR-1564011) (bispecific antibody, human IgG1, kappa, L234A L235A)
heavy: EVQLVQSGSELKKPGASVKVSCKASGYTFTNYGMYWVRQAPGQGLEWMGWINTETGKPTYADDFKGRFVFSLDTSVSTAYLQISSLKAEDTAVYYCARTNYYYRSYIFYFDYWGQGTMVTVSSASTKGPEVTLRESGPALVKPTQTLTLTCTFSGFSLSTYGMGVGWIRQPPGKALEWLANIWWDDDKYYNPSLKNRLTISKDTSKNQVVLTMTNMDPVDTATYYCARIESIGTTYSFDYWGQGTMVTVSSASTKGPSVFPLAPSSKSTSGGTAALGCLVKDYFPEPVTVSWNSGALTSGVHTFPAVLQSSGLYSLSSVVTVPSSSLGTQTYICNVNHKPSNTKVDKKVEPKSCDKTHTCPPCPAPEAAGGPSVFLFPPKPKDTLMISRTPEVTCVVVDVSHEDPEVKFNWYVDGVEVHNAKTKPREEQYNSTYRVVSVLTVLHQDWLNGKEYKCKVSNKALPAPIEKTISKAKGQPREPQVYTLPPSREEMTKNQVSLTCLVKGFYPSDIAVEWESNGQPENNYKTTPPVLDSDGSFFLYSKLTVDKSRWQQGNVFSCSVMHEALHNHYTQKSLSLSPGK
light: DTVLTQSPATLSLSPGERATLSCRASESVSTHMHWYQQKPGQAPRLLIYGASNLESGVPARFSGSGSGTDFTLTISSLEPEDFAVYFCQQSWNDPFTFGQGTKLEIKRTVAAPEFVLTQSPGTLSLSPGERATLSCERSSGDIGDSYVSWYQQKPGQAPRLVIYADDQRPSGIPDRFSGSGSGTDFTLTISRLEPEDFAVYYCQSYDINIDIVFGGGTKVEIKGTVAAPSVFIFPPSDEQLKSGTASVVCLLNNFYPREAKVQWKVDNALQSGNSQESVTEQDSKDSTYSLSSTLTLSKADYEKHKVYACEVTHQGLSSPVTKSFNRGEC
notes: DVD-Ig; outer hBDB-4G8.3 (VEGF), linkers HG-short/LK-short, inner hBDI-9E8.4 (PDGF); human IgG1 L234A, L235A / kappa
B10: 4G8.3-LS-9E8.4 (PR-1564013) (bispecific antibody, human IgG1, kappa, L234A L235A)
heavy: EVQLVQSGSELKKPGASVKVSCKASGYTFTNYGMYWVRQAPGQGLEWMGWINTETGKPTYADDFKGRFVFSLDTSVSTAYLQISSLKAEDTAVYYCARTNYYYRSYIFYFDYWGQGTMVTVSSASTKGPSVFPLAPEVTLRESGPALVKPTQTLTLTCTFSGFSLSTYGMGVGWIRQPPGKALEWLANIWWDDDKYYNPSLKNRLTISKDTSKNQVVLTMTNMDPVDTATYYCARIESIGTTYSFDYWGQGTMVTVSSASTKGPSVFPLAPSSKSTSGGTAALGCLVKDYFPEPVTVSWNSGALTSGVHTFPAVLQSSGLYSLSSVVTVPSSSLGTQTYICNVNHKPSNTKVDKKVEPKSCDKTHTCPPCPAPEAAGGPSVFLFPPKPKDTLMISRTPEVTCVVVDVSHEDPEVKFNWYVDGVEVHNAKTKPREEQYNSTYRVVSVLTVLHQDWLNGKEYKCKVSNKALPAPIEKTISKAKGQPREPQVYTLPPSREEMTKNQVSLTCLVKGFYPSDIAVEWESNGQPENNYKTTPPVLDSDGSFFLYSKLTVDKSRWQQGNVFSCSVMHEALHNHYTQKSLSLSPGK
light: B9 light
notes: DVD-Ig; outer hBDB-4G8.3 (VEGF), linkers HG-long/LK-short, inner hBDI-9E8.4 (PDGF); human IgG1 L234A, L235A / kappa

Residue numbers refer to the chain shown, from its start. Names may count otherwise.

VEGF-A, sequence (P15692 other isoform, or with tags, fused parts or gaps limits assumed): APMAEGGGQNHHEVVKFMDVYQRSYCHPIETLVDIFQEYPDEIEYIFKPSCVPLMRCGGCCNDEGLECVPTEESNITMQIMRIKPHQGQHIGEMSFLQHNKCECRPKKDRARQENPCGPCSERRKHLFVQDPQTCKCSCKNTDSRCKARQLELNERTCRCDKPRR
PDGF-BB, sequence (P01127 82-190): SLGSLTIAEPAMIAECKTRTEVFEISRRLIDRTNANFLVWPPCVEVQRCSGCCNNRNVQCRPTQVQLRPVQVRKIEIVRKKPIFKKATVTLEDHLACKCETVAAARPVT

The target of one test is VEGF-A (UniProt P15692-4 27-191, limits assumed). The test can be described thus: SPR (Biacore), DVD-Ig captured by anti-human Fc, antigen in flow. The procedure:
(§1) For example, approximately 9000 RU of goat anti-human Fc specific polyclonal antibody (Thermo Fisher Scientific Inc., Rockford, Ill.) diluted in 10 mM sodium acetate (pH 4.5) is directly immobilized across a CM5 research grade biosensor chip using a standard amine coupling kit according to manufacturer's instructions and procedures at 25 μg/ml. Unreacted moieties on the biosensor surface were blocked with ethanolamine. For kinetic analysis, rate equations derived from the 1:1 Langmuir binding model were fitted simultaneously to multiple antigen injections (using global fit analysis) with the use of Scrubber 2 (BioLogic Software), Biacore Biaevaluation 4.0.1 software or Biacore T100 Evaluation software. Purified antibodies or DVD-Ig molecules were diluted in running buffer for capture across goat anti-human Fc reaction surfaces. Antibodies or DVD-Ig molecules to be captured as a ligand (1 μg/ml) were injected over reaction matrices at a flow rate of 10 μl/minute. During the assay, all measurements were referenced against the capture surface alone (i.e., with no captured antibody or DVD-Ig molecule). […] The equilibrium dissociation constant KD (M) of the reaction between antibodies and the target antigen was then calculated from the kinetic rate constants by the following formula: KD=Koff/Kₒₙ. Binding was recorded as a function of time and kinetic rate constants were calculated.
For orientation: SPR reads the build-up and loss of mass on a sensor chip optically.
Turning to B1, the dissociation constant Kd (in general, the free concentration of one partner at which half of the binding sites on the other are occupied at equilibrium, for simple one-to-one binding) was 0.19 nM and the kon (usually the rate constant with which the complex forms) worked out at 610000 M⁻¹ s⁻¹.
For B2, in that order: 0.094 nM and 1.1e+06 M⁻¹ s⁻¹.
For B3, in that order: 0.2 nM and 270000 M⁻¹ s⁻¹.
For B4, in that order: 0.013 nM and 6e+06 M⁻¹ s⁻¹.
Consider B5, for which the Kd turned out to be 0.011 nM and the association rate constant (kon) worked out at 6.1e+06 M⁻¹ s⁻¹.
For B6, in that order: 0.017 nM and 3.3e+06 M⁻¹ s⁻¹.
The molecule B7 had a Kd of 0.013 nM and a kon of 3.1e+06 M⁻¹ s⁻¹.
B8: the Kd amounted to 0.011 nM and the kon came to 5.6e+06 M⁻¹ s⁻¹.
For B9, in that order: 0.013 nM and 3.1e+06 M⁻¹ s⁻¹.
B10 gave an equilibrium dissociation constant (Kd) of 0.012 nM and a kon of 3.1e+06 M⁻¹ s⁻¹.

Another test addresses PDGF-BB (UniProt P01127 82-190). The test is described as above. The method, then: as §1
Regarding B1, the Kd was 0.09 nM and the on-rate (kon) came out at 1e+07 M⁻¹ s⁻¹.
B2 returned a dissociation constant Kd of 0.18 nM and a kon of 1e+07 M⁻¹ s⁻¹.
For B3, in that order: 0.02 nM and 1e+07 M⁻¹ s⁻¹.
B4: the affinity, expressed as Kd, was 0.013 nM and the kon was 1.3e+07 M⁻¹ s⁻¹.
Turning to B5, binding was put at a Kd of 0.0089 nM and the on-rate constant (kon) stood at 1.5e+07 M⁻¹ s⁻¹.
Molecule B6 yielded an equilibrium dissociation constant (Kd) of 0.013 nM and a kon of 1e+07 M⁻¹ s⁻¹.
B7 gave a Kd of 0.0099 nM and an on-rate constant (kon) of 1.4e+07 M⁻¹ s⁻¹.
Regarding B8, binding was put at a Kd of 0.013 nM and the kon stood at 1.3e+07 M⁻¹ s⁻¹.
For B9, in that order: 0.019 nM and 7.5e+06 M⁻¹ s⁻¹.
For B10, in that order: 0.0086 nM and 1.7e+07 M⁻¹ s⁻¹.

The values above are taken from patent publication US20170015742A1 (published 2017).
